{"source": "patent US20030003461", "about": "“Truncation selex method” (Gilead Sciences, Inc., published 2003)", "binders": {"B1": {"name": "T1-11 (ssRNA)", "RNA": "GGGAGGAAGAAUUGGAAACAUUGCUCGUCAGACGACUCGCCCGA", "modifications": "2'-F pyrimidines"}}, "target": "VEGF (Homo sapiens, UniProt P15692-4 P15692-4:27-191)", "sequence (P15692 other isoform, or with tags, fused parts or gaps)": "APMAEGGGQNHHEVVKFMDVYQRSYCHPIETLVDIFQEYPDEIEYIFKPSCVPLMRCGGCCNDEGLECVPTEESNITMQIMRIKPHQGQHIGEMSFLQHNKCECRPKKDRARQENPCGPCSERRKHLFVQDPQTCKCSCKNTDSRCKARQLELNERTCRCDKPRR", "experiment": "filter; phenotype 5: non-binding with or without 3' fixed sequence", "settings": "tags: recombinant human, R&D Systems; chain copies: 2", "data": [{"binder": "B1", "values": [{"measurement": "binding result", "value": "no binding"}]}]}
